According to patent US20250002945, “NEW TALE PROTEIN SCAFFOLDS WITH IMPROVED ON-TARGET/OFF-TARGET ACTIVITY RATIOS” (CELLECTIS SA, published 2025):

Experiments:
Conditions in all cases: tags: SV40 NLS; FokI fusion
[1] = biological target: T1, IgH (2) left V2 TALEN (synthetic, UniProt Q56830 SEQ:15-719); assay: cell_activity; T cells, mostly above 70%
T1 chain: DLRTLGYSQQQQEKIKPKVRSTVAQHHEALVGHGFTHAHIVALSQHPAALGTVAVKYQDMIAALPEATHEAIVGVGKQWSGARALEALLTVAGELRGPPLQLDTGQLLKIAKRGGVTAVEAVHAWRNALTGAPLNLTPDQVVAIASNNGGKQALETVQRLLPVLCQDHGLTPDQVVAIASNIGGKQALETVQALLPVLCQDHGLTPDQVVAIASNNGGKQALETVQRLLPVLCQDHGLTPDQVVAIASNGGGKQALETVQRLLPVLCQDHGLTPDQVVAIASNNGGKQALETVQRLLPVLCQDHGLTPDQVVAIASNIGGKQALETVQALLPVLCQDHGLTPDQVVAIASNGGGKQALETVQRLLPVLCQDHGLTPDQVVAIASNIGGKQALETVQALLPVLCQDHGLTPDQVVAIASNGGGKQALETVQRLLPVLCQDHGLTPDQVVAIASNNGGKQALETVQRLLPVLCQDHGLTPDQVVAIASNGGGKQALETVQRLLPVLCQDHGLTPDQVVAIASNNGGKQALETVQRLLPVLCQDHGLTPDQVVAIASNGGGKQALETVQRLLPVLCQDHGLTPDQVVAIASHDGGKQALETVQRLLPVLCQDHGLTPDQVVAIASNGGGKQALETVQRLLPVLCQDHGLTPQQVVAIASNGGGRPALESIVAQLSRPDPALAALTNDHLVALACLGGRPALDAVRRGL

[2] = biological target: T2, GADPH (1) left V2 TALEN (synthetic, UniProt Q56830 SEQ:15-719); assay: cell_activity; T cells, mostly above 70%
T2 chain: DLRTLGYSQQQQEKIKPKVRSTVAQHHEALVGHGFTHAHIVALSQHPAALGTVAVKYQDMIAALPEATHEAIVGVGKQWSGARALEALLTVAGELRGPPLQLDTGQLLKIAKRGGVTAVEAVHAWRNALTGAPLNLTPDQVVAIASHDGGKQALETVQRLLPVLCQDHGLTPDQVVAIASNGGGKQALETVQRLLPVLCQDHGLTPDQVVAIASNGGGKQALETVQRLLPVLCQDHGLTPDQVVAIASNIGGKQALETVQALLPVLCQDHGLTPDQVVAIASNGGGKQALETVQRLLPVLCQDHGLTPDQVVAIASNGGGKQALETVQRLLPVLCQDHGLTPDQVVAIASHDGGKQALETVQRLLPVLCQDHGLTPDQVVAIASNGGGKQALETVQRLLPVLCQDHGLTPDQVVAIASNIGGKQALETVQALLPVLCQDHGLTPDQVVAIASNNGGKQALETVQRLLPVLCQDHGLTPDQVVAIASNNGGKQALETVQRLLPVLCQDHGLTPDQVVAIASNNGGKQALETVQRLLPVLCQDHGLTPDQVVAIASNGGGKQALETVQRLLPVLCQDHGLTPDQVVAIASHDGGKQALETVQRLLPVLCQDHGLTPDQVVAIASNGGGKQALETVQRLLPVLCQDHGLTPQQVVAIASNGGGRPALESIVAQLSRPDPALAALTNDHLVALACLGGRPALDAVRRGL

[3] = biological target: T3, IgH (2) right V2 TALEN (synthetic, UniProt Q56830 SEQ:15-719); assay: cell_activity; T cells, mostly above 70%
T3 chain: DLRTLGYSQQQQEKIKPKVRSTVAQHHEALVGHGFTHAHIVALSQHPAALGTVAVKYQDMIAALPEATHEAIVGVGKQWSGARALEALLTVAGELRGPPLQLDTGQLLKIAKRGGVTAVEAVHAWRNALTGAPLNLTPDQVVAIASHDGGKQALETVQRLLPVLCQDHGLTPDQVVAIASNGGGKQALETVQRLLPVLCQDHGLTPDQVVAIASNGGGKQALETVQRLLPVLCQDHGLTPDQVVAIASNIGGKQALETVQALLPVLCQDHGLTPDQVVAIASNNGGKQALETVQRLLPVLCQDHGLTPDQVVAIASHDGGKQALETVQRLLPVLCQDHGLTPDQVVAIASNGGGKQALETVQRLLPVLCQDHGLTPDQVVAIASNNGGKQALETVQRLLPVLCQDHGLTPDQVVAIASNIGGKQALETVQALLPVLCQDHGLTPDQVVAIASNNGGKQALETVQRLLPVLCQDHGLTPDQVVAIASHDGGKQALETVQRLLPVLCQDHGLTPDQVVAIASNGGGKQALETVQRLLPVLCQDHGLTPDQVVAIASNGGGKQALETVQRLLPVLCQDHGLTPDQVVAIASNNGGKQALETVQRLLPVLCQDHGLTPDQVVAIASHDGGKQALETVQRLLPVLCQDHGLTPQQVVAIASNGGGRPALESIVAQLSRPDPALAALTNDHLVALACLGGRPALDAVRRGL

[4] = biological target: T4, GADPH (2) right V2 TALEN (synthetic, UniProt Q56830 SEQ:15-719); assay: cell_activity; T cells, mostly above 70%
T4 chain: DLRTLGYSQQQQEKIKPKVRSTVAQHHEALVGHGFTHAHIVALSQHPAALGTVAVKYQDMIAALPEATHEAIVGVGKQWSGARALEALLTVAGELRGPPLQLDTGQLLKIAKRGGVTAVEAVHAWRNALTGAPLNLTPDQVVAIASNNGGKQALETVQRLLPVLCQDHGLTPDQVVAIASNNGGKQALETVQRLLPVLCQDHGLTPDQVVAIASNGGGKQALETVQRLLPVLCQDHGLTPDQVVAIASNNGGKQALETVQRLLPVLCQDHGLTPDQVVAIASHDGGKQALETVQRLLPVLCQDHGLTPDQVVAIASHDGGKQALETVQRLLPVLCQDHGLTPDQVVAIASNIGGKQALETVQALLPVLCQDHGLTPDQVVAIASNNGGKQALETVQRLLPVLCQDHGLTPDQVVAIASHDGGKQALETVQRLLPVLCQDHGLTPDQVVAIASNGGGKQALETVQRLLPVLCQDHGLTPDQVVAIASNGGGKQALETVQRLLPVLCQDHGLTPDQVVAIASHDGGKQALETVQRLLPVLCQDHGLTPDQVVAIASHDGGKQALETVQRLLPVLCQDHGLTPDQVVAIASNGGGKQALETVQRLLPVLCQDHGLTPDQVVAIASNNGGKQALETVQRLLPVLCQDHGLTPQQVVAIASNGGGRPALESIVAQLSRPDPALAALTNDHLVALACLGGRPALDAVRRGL

[5] = biological target: T5, GADPH (2) left V2 TALEN (synthetic, UniProt Q56830 SEQ:15-719); assay: cell_activity; T cells, mostly above 70%
T5 chain: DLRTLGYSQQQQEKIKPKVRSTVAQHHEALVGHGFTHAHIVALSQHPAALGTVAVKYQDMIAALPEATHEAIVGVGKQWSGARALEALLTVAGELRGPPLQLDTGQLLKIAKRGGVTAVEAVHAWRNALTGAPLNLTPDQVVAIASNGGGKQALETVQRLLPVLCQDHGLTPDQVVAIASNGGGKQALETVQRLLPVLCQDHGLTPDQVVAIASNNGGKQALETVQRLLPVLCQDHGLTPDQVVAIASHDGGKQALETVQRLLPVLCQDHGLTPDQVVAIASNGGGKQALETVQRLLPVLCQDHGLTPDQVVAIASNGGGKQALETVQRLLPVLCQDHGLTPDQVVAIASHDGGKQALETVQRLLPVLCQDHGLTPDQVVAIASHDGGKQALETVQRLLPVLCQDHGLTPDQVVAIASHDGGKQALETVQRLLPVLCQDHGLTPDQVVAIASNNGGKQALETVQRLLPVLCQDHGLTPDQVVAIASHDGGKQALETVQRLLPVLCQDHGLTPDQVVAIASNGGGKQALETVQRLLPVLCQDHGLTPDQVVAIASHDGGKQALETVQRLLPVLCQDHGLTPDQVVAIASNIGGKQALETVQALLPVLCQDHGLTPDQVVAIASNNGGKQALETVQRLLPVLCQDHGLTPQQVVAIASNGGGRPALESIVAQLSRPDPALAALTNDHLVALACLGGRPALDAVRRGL

[6] = biological target: CS1 TALEN left V0 FokI D84A (synthetic, UniProt Q56830, D84A (FokI domain, SEQ ID NO:109 numbering)); assay: cell_activity; paired with V0 monomer
[7] = biological target: CS1 TALEN left V0 FokI G91A (synthetic, UniProt Q56830, G91A (FokI domain, SEQ ID NO:109 numbering)); assay: cell_activity; paired with V0 monomer
[8] = biological target: CS1 TALEN left V0 FokI Y88A (synthetic, UniProt Q56830, Y88A (FokI domain, SEQ ID NO:109 numbering)); assay: cell_activity; paired with V0 monomer
[9] = biological target: T6, GADPH (1) right V2 TALEN (synthetic, UniProt Q56830 SEQ:15-719); assay: cell_activity; T cells, mostly above 70%
T6 chain: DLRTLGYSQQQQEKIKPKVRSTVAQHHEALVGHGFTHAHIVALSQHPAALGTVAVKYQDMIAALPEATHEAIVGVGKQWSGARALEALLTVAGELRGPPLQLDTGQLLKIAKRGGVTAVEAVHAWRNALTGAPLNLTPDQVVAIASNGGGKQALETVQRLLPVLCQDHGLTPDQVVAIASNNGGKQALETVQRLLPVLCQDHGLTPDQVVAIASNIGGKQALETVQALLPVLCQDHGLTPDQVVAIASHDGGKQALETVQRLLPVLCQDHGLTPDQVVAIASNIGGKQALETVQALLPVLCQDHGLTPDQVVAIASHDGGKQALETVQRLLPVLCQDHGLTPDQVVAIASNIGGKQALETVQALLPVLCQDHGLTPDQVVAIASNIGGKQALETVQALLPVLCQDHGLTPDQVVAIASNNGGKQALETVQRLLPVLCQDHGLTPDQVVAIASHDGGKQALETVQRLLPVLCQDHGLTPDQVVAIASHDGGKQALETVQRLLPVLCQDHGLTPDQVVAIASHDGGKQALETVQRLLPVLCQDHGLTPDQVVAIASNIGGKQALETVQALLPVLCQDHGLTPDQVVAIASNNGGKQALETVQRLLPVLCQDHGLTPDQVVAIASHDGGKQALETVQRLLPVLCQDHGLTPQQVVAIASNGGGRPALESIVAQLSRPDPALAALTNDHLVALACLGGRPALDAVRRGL

B1: IgH (2) left half-site (dsDNA)
DNA 1: TGAGTGATATGTGTCTG
DNA 2: CAGACACATATCACTCA
For B1, the activity [1] was greater than 50 % indels.

B2: GADPH (1) left half-site (dsDNA)
DNA 1: TCTTATTCTAGGGTCTG
DNA 2: CAGACCCTAGAATAAGA
For B2, the activity [2] was greater than 50 % indels.

B3: IgH (2) right half-site (dsDNA)
DNA 1: AGCAAGCTCAGCTAAGA
DNA 2: TCTTAGCTGAGCTTGCT
Work on B3 yielded an activity [3] greater than 50 % indels.

B4: GADPH (2) right half-site (dsDNA)
DNA 1: ACAGGAAGCTGGCACCA
DNA 2: TGGTGCCAGCTTCCTGT
In the case of B4, the activity [4] is reported as greater than 50 % indels.

B5: GADPH (2) left half-site (dsDNA)
DNA 1: TTTGCTTCCCGCTCAGA
DNA 2: TCTGAGCGGGAAGCAAA
For B5, the activity [5] was greater than 50 % indels.

B6: CS1 left half-site (dsDNA)
DNA 1: TTCCAGAGAGCAATATG
DNA 2: CATATTGCTCTCTGGAA
B6 was tested, and the binding signal [6] was > 100 % of WT FokI, the binding signal [7] was > 100 % of WT FokI and the binding signal [8] was > 100 % of WT FokI.

B7: GADPH (1) right half-site (dsDNA)
DNA 1: AGCTGGGCTTGTGTCAA
DNA 2: TTGACACAAGCCCAGCT
For B7, the activity [9] was greater than 50 % indels.
